Test results reported in the supplement of paper PMC10567573.

B1: MATN2 (parent)
chain: FSLKTFKRKSEVERAVKRMRHLST

Variants of: B1
Test: protein stability index of a GFP-peptide fusion (GPS, HEK-293T) (PSI 1-6); higher = more stable
Conditions: c terminus: a fixed tail appended
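Further: lentivirally expressed fusions sorted by FACS into six bins by GFP to DsRed ratio, PSI derived from sequencing read proportions per bin multiplied by bin number.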

In order of falling protein stability index:
1. QSLKTFKRKSEVERAVKRMRHLST [F1Q]  3.62
2. HSLKTFKRKSEVERAVKRMRHLST [F1H]  3.6
3. FSLMTFKRKSEVERAVKRMRHLST [K4M]  3.59
4. KSLKTFKRKSEVERAVKRMRHLST [F1K]  3.46
5. NSLKTFKRKSEVERAVKRMRHLST [F1N]  3.33
6. FSLKTFKHKSEVERAVKRMRHLST [R8H]  3.3
7. FSLKTYKRKSEVERAVKRMRHLST [F6Y]  3.29
8. FSLKTFKMKSEVERAVKRMRHLST [R8M]  3.23
9. FSLKTFKRWSEVERAVKRMRHLST [K9W]  3.18
10. YSLKTFKRKSEVERAVKRMRHLST [F1Y]  3.13
11. ASLKTFKRKSEVERAVKRMRHLST [F1A]  3.04
12. TSLKTFKRKSEVERAVKRMRHLST [F1T]  3.02
13. PSLKTFKRKSEVERAVKRMRHLST [F1P]  3
14. FSLKTFKRMSEVERAVKRMRHLST [K9M]  2.98
15. FSLKTFVRKSEVERAVKRMRHLST [K7V]  2.91
16. FSLKTFKRCSEVERAVKRMRHLST [K9C]  2.91
17. SSLKTFKRKSEVERAVKRMRHLST [F1S]  2.87
18. FSLKTAKRKSEVERAVKRMRHLST [F6A]  2.87
19. GSLKTFKRKSEVERAVKRMRHLST [F1G]  2.86
20. FSLKTFKDKSEVERAVKRMRHLST [R8D]  2.85
21. FSLKTQKRKSEVERAVKRMRHLST [F6Q]  2.85
22. DSLKTFKRKSEVERAVKRMRHLST [F1D]  2.77
23. FSLKTFNRKSEVERAVKRMRHLST [K7N]  2.76
24. FSLKTRKRKSEVERAVKRMRHLST [F6R]  2.73
25. ESLKTFKRKSEVERAVKRMRHLST [F1E]  2.72
26. FSLKTFKPKSEVERAVKRMRHLST [R8P]  2.7
27. FSLKTPKRKSEVERAVKRMRHLST [F6P]  2.67
28. FSLKTFMRKSEVERAVKRMRHLST [K7M]  2.66
29. FSLPTFKRKSEVERAVKRMRHLST [K4P]  2.58
30. FSLKTFKRSSEVERAVKRMRHLST [K9S]  2.58
31. VSLKTFKRKSEVERAVKRMRHLST [F1V]  2.56
32. FSLKTFKRQSEVERAVKRMRHLST [K9Q]  2.52
33. FSLKTFDRKSEVERAVKRMRHLST [K7D]  2.51
34. FSLKTFKQKSEVERAVKRMRHLST [R8Q]  2.49
35. FSLKTFKLKSEVERAVKRMRHLST [R8L]  2.48
36. FSLKTFKTKSEVERAVKRMRHLST [R8T]  2.47
37. FSLKTFGRKSEVERAVKRMRHLST [K7G]  2.46
38. FSLKTFKRGSEVERAVKRMRHLST [K9G]  2.46
39. FSLKTFKRDSEVERAVKRMRHLST [K9D]  2.46
40. FSLQTFKRKSEVERAVKRMRHLST [K4Q]  2.45
41. CSLKTFKRKSEVERAVKRMRHLST [F1C]  2.45
42. FSLKTFRRKSEVERAVKRMRHLST [K7R]  2.45
43. FSLKTFKGKSEVERAVKRMRHLST [R8G]  2.43
44. FSLKTDKRKSEVERAVKRMRHLST [F6D]  2.43
45. FSLNTFKRKSEVERAVKRMRHLST [K4N]  2.39
46. ISLKTFKRKSEVERAVKRMRHLST [F1I]  2.39
47. FSLRTFKRKSEVERAVKRMRHLST [K4R]  2.38
48. RSLKTFKRKSEVERAVKRMRHLST [F1R]  2.37
49. FSLKTFKKKSEVERAVKRMRHLST [R8K]  2.33
50. FSLKTFTRKSEVERAVKRMRHLST [K7T]  2.31
51. FSLKTFKYKSEVERAVKRMRHLST [R8Y]  2.29
52. FSLKTMKRKSEVERAVKRMRHLST [F6M]  2.29
53. FSLGTFKRKSEVERAVKRMRHLST [K4G]  2.28
54. FSLKTFKCKSEVERAVKRMRHLST [R8C]  2.27
55. FSLKTFKRFSEVERAVKRMRHLST [K9F]  2.25
56. MSLKTFKRKSEVERAVKRMRHLST [F1M]  2.24
57. FSLHTFKRKSEVERAVKRMRHLST [K4H]  2.21
58. FSLITFKRKSEVERAVKRMRHLST [K4I]  2.21
59. LSLKTFKRKSEVERAVKRMRHLST [F1L]  2.19
60. FSLTTFKRKSEVERAVKRMRHLST [K4T]  2.18
61. FSLKTFKNKSEVERAVKRMRHLST [R8N]  2.17
62. FSLKTFKVKSEVERAVKRMRHLST [R8V]  2.15
63. FSLKTIKRKSEVERAVKRMRHLST [F6I]  2.14
64. FSLKTFKIKSEVERAVKRMRHLST [R8I]  2.12
65. FSLKTFKRYSEVERAVKRMRHLST [K9Y]  2.12
66. FSLSTFKRKSEVERAVKRMRHLST [K4S]  2.09
67. FSLKTFKRTSEVERAVKRMRHLST [K9T]  2.09
68. FSLDTFKRKSEVERAVKRMRHLST [K4D]  2.05
69. FSLKTFPRKSEVERAVKRMRHLST [K7P]  2.05
70. FSLKTFHRKSEVERAVKRMRHLST [K7H]  2.05
71. FSLKTFQRKSEVERAVKRMRHLST [K7Q]  1.97
72. FSLKTFKSKSEVERAVKRMRHLST [R8S]  1.93
73. FSLKTFKRISEVERAVKRMRHLST [K9I]  1.91
74. FSLKTFWRKSEVERAVKRMRHLST [K7W]  1.9
75. FSLFTFKRKSEVERAVKRMRHLST [K4F]  1.85
76. FSLKTFKRPSEVERAVKRMRHLST [K9P]  1.84
77. FSLKTFKRRSEVERAVKRMRHLST [K9R]  1.84
78. FSLKTFFRKSEVERAVKRMRHLST [K7F]  1.83
79. FSLETFKRKSEVERAVKRMRHLST [K4E]  1.8
80. FSLLTFKRKSEVERAVKRMRHLST [K4L]  1.78
81. FSLKTFARKSEVERAVKRMRHLST [K7A]  1.78
82. FSLKTFKRASEVERAVKRMRHLST [K9A]  1.78
83. FSLKTFYRKSEVERAVKRMRHLST [K7Y]  1.77
84. FSLCTFKRKSEVERAVKRMRHLST [K4C]  1.74
85. FSLATFKRKSEVERAVKRMRHLST [K4A]  1.69
86. WSLKTFKRKSEVERAVKRMRHLST [F1W]  1.69
87. FSLKTFSRKSEVERAVKRMRHLST [K7S]  1.69
88. FSLKTFKRNSEVERAVKRMRHLST [K9N]  1.65
89. FSLKTFCRKSEVERAVKRMRHLST [K7C]  1.63
90. FSLKTFKRESEVERAVKRMRHLST [K9E]  1.62
91. FSLKTFKFKSEVERAVKRMRHLST [R8F]  1.43
92. FSLKTFIRKSEVERAVKRMRHLST [K7I]  1.31
93. FSLKTFKRVSEVERAVKRMRHLST [K9V]  1.25
94. FSLKTFLRKSEVERAVKRMRHLST [K7L]  1.15
